# The nanobody polyreactivity screen of Harvey et al. (2022)
# Experiment: yeast display, Sf9 membrane polyspecificity reagent, FACS + sequencing; frameworks hold sequencing errors
# How it was run: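 Galactose-induced (36–48 hours) yeast carrying a synthetic nanobody display library were exposed to 10% biotinylated, detergent-solubilized Sf9 membrane reagent at 4 °C for 1 hour. FACS followed streptavidin microbead enrichment, using low and high (top ~1%) gates for expression (anti-HA) and reagent binding (streptavidin). Colony PCR, MiSeq 2 × 250 sequencing and CDR-length filtering followed. Labels for polyreactivity reflect the gate of origin.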
row,Sequence,polyreactivity (PSR sort gate)
1,KVQLVESGGGLVQAGGSLRLSCAASGIIFFPYAMAWYRQAPGKERELVASINISDSSTYYADSVKGRFTISRDNAKKTVYLQMNSLKPEDTAVYYGAADNRGDSWYWDGYWGQGTQVTVSS,low polyreactivity
2,QVQLVESGGGLVQAGGSLRLSCAASGGTFYNYAMGWYRQAPGKERELVAAITYSGGITYYADSVKGRFTISRDNAKNTVYLQMNSLKPEDTAVYYCNTDGINSSVVVVDDYWMDYWGQGTQVTVSS,low polyreactivity
3,QVQLVESGGGLVQAGGSLRLTCAASGRTFYIYAMGWYRPAPGKERQLVAAITYGGGRTFYADSVKGRFTISRYNAKNTVYLQMNSLKPEDTAVYYCGATVRGKRSTYDYWGQGTQVTVSS,high polyreactivity
4,QVQLVESVGGLVQAGGSLRLSCAASGSILRRYAMGWYRRAPWKERELVAAIDGGGGTTYYADSVKGRFTISRDYAKKTVYLQMNSLKPEDNAVYYCAADASWELIAWAHYDYWGQGTQVSVSS,low polyreactivity
5,QVQLVESGGGLVQAGGSLRLSCAASGRTFYRNAMGWYRQAPGKERELVAAITTSGGRTYYADSVKGRFTISRDNAKNTVYLQMNSLKPEDTAVYYCNAVYYGRTYASGYDYWGQGTQVTVSS,high polyreactivity
6,QVQLVESGGGLVQAGGSLRLSCAASGSIFARYAMGWYRQAPGKERELVAAISSNSASTYYADSVKGRFTISRDNAKNTVYLQMNSLKPEDTAVYYCATAYRSYWLTDYSGQGTQVTVSS,low polyreactivity
7,QVQLVESGGGLVQAGGSLRLSCAASGFTFRYYAMGWYRQAPGKERELVAAISWSGASTYYADSVKGRFTISRDNAKNTVYLQMNSLKPEDTAVYYCAADIPGTYYYWGQGTEVTVSS,high polyreactivity
8,QVQLGESGGGIVQAGGSLRLSCAASGFIIRYNAMGWYRQAPGKERQFVAAISWGGGRTYYADSVKGRFTISRDNAKNTVYLQMNSLKPEDTAVYFCAAVSPHNRYGYKYDYWGQGTQVTVSS,high polyreactivity
9,QVQLVESGGGLVQAGCSLRLSCAATGCSFKYNTMGWYRQAPGKERELVAAITSGGGSTYYADSVKGRFTISRDNAKNTVYLPMNRLKPEDTAVYYCAAYRRNTYWGQGTQVTVSA,high polyreactivity
10,QVQLVESGGGLVQAGGSLRISCAASGSTFGSYVMGWYRQAPGKERELVAAICGSGGSTYYADSVKGRFTISRDNAKHTVYLQMNSLKPEDTAVYYCAAYVYFPWYGYWGQATQVTVSS,high polyreactivity
11,HVQLVESGGGLVQAGGSLRLSCAASGRTFRLYAMGRYRQATGKEMELVARIRWRGGTTYFADSVKGRFTISRDNAKNTVYLQMNRLKPEDTAVYYCAARAYPTWRTYYYCGQGTQVTVSS,high polyreactivity
12,QVQLVESGGGLVQAGGSLRLSCAASGSTFNPYAMGWYRQAPGKERELLAAITWSSDDTYYADSVKGRFTISRDNAKNTVYLQMNSLKPEDTAVYYCAADVIGDLRWYGDEYWGQGTQVTESS,low polyreactivity
13,QVQLVESGGGLVQAGGSLRLSCAASGSTFAYNDMGWYRQAPGKERELVADSRSGGNTNYADSVKGRFTISRDNAKNTVYLQMNSLKREDTAVYYCATDGYRIDVFHPDYRYDYWGHGTQVTVSS,low polyreactivity
14,QVQLVESGGGLVQAGGSLRLSCAASGLIFPVYAMGWYRQAPGKDREFVASIWRGGTTYYADSVKGRFTISRDNAKNTVYLQMNSLKPEDTAVYYCAAVVYSRGYYWGQGTQVTVSS,high polyreactivity
15,QVQLVESGGGLVQAGGSLRLSCAASGSIFKRYAMGWYRQAPGKERELVAAITYNGGSTYYADSVKGRFTISRDNAKNTVYLQMNSLKPEDTAVYYCAAERYNGYDYWGQGTQVTVSS,high polyreactivity
16,QVQLVESGGGLVQAGCSLRLSCAASGFILSDNAMGWYRQAPGKERELVAAINSGGSTYYADSVKGRFTISRDNAKNTVYFQMNSLKPEDSAVYYCAADYSTWLRAYDYWGQGTQVTVSS,low polyreactivity
17,QVQLVESGGGLVQAGGSLRLSCAASGSIFGQNAMGWYRQAPGKERELVAAITSGAGITYYADSVKGRFTISRDNAKNTVYLQMNSLKPEDTAVYYCNAVPSWTPSPLFDYWGLGTQVTVSS,low polyreactivity
18,QVQLVESGGGLVQAGGSLRLSCAASGSTFAKYAMGWYRQAPGKERELVAAISLSGGSTYYADSVKGRFTISRDNAKNTVYLQMNSLKPEDTAVYYCNTPPSRYVRYGIYRYDYWGQGTQVTVSS,high polyreactivity
19,QVQLVESGGGLVQAGGSLRLSCAASGFIFSEYAMGWYRQAPGKDMELVAAISSGGNTYYADSVKGRFTISRDNAKNTVYLQMNSLKTEDTAVYYCNADNYAFYTQRPLDGSATYDYWGQGTQVTVSS,low polyreactivity
20,QVQLVESGGGLVQAGGILRLSCAASGRIFPKYAMGWYRQAPGKERELVAAIRWSGGNTYYADSVKGRFTISRDNAKNTVYLQMNSLKPEDTAVYYCAATPYVSKYYYFGHDYWGQGTQVTVSS,high polyreactivity
21,QVQLVESGGRLVQAGGTLRLSCADSGNTLHVYAMGWYRQAPGKERELVARITGGGRKYYADSVKGRFTISRDNAKNTVYLLMNSLNPEDTAVYYCATDYYGHKFLYDYWGQGTQVTVSS,low polyreactivity
22,QVQLVESGGGLVQAGGSLRLSCAASGSTFIYYVKGWYRQAPGNERELVAAISGRTGSTYYADSVKGRFTISRDNAKNTVYLQMNSLTPEDTAVYYCAKRGFLYWDHVSGFYRYDYWGQGTQVTVSS,low polyreactivity

row,Sequence,polyreactivity (PSR sort gate)
1,QVQLVESGGGLVQAGGSLRLSCAASGRTFGGNAMGWYRQAPGKERELVAAISSGGSTNYADSVKGRFTISRDYAKNTVYLQMNSLKPEDSAVYYCAAGWYWWARYDYWGQGTQVTVSS,low polyreactivity
2,QVQLVESGGGLVQAGGSLRLSCAASGRTFSWNTMGWYRQAPGKEMELVATITWSGTSTYYADSVKGRFTISRDNAKNTDYLQMNSLKPEDTAVYYCAKRRLFPYTISRYDYWGQGTQVTVSS,high polyreactivity
3,QVQLVESGGGLVQAGCSLRLSCAASGRTFGRNAMGWNRQAPGKERELVAAITSGGSTSYADSVKGRFTISRDNAKNTVYLQMNSLKPEDTAVYYCAADVRPYYTRRVWIQFDYWGQGTQVTVSS,high polyreactivity
4,QVQLVESGGGLVQAGGSLRLSCAASGRTFAYNTMGWYRQAPGKERELVAAITWSGGGTYYADSVKGRFTISRDNAKNTVYLQMNRLKPEDTAVYFCAVEYASPRARYRYYYWGQGTQVSVSS,low polyreactivity
5,QVQLVESGGGLVQAGGSLRLSCAASGSIFDRYAMGWYRQAPGKERELVAAISKSGGRTYYADSVKGRLTISRDNAKNTVYLQMNSLKPEDTAVYYCAADPLLGYLSHYYWGQGTQVTVSS,high polyreactivity
6,QVQLVESGGGLVQAGGSLRLICAASGSTFGPYSMGWYRQAPGKEMELVAVITTSGSTNYADSVKGRFTISRDNAKNTVYLQMNSLKPEDTAVYYCAARYRYYGTNRYYYWGQGTQVTVSS,high polyreactivity
7,QVQLVESGGGLVQARGSLRLSCAPSGSIFDHNAMGWYRQAPGKESEFVAAISSSGGSTNYADSVKGRFTISRDIAKNTVYLQMNSLKPEDTAVYYCAAYPDRYVELGYWGQGTQVTVSS,low polyreactivity
8,QVQLVESGGGLVQAGGSLRLSCAASGYIFYAYAMAWYRHAPGKESELVAAITDNGVSTFYADSVKGRFTISRDNAKNTVYLHMNSLIPEDTAVYYCATSSTHSRGDEYWGQGTQVAVSS,low polyreactivity
9,QVQLEESGGGLVQAGGSLRLSCAASGITFFWNAMGWYRQAPGTERELVAVISSGGSTKYSDSVKGRFTISRDNAKNTVYLQMNSLKPEDTAVYYCAAAVRVGTRQYGYWGQGTQVTVSS,high polyreactivity
10,QVQHVESGGGLVQAGGSLRLSCAASGSTYNGYAMGWYRQATGKERELVAAISTSGGSTYYADSVKGRFTISRDNAKNTVYLQMNSLKPEDTAVYYCATYYGKRYMRRVDYWGQGTQVTVSS,high polyreactivity
11,QVQLEESGGGLVQAGGSLRLSCAASGSTFYPYAMGWYIQAPGTERELVAAISSRDGRTYYADSVKGRFTISRDNAKNTVYLQMNSLTPEDTAVYYCAASSFNNGHRYDYWGQGTQVTVSS,high polyreactivity
12,QVQLVESGGGLVQAGGSLRLSCDASGRIYGYNAIAWYRQAPGKERELVAAITNGGSTNYADSVKGRFTISRDNAKNTVFLQMNSLKPDETAVYYCAVKWYAPGHDYWGQGTQVTVSS,low polyreactivity
13,QVQLVDSGGGLVKAGGSLRISCPASGITLKYYSMGWYRPSPGKERELVAAITRSGVGTYYADSVKGRFTISRDNAKNTVYLQMNSLKPEDTAVYYCAARGGWLQTKYDYWGQGTQVTVSS,high polyreactivity
14,QVQLVESGGGLVQAVGSLSLICAASGSTFLKYTMGWYRQAPWKERELVAAISKSGGSTYYADSVKGRFTISRDNAKNTVYLQMNSLKPEDTAVYYCAKGRYWVSSYGYGYWVQGTQVTVSS,high polyreactivity
15,QVQLVESGGGLVQAGGSLRLSCAASGIIFYYNTMGWYRQAPGKERELVAAISQRGGSTYYADSVKGRFTISRDNAKNTVYLQMNSLKPEDTAVYYCNKLRNSHGFRYDYWGQGTQVTVSS,high polyreactivity
16,QVQLVESGGGLVQAGGSLRLSSAASGSIFPKNTMGWYRQAPGKERELVAAISKSGGSTYYADSVKGRFTISRDNAKNTVYLQMNSLKPEDTAVYYCAAALGLRSTSWGRRGGGGDYWGQGTQVTVSS,high polyreactivity
17,QVQLVESGGGLVQAGGSLRLSCAASGSIFYPYAMGWYRQAPGKERQLVAAISYSGGSTYYADSVKGRFTISRDNAKNTVYLQMNSLKPEDTAVYYCAADVTAGDGRNDYWGIGTQVTVSS,low polyreactivity
18,QVQLVESGGGLVQAGGSLRLSCAASGSIFWKYAMGWYRQAPGKERELVAAISDGVSTNYADSVKGRFTISRDNAQNTVYLQMNSLKPEDTAVYYCNAETRERDPTREFDYWGQGTQVTVSS,low polyreactivity
19,QVHLVESGGGLVQAGGSRRLSCAASGSIFRWYAMGWSRQAPGKERELVAAITRSGGRTYYADSVKGRFTISRDNAKNTVYLQMNSLKPEDTAVYYCAAVARTVPSYSYNYWGQGTQVTVSS,high polyreactivity
20,QVQLVESGGGLVQAGGSLRLSCAASGSIFQYNAMGWYRQAPGKRELVAAINRSGGSTYYADSVKGRFTISRDYAKNTVYLQMNSLKPEDTAVYYCAAVRYDRARGSPYPDRVGVYSWGQGTQVTVSS,high polyreactivity
21,QVQLVESGGGLVQAGGSLRLSCAASGRTFRYNAMGWYRQAPGKERELVAGITYYGGSTSYADSVKGRFTISRDNAKNTVYLQMNSLKPEDTEVYYCNVVYNYYGRFGSWGQGTQVTVSS,high polyreactivity
